First the molecules themselves.
B4: Kss1 (wild type), in vitro translated, 35S-labelled (enzyme, S. cerevisiae, UniProt P14681 1-368, looked up)
chain: MARTITFDIPSQYKLVDLIGEGAYGTVCSAIHKPSGIKVAIKKIQPFSKKLFVTRTIREIKLLRYFHEHENIISILDKVRPVSIDKLNAVYLVEELMETDLQKVINNQNSGFSTLSDDHVQYFTYQILRALKSIHSAQVIHRDIKPSNLLLNSNCDLKVCDFGLARCLASSSDSRETLVGFMTEYVATRWYRAPEIMLTFQEYTTAMDIWSCGCILAEMVSGKPLFPGRDYHHQLWLILEVLGTPSFEDFNQIKSKRAKEYIANLPMRPPLPWETVWSKTDLNPDMIDLLDKMLQFNPDKRISAAEALRHPYLAMYHDPSDEPEYPPLNLDDEFWKLDNKIMRPEEEEEVPIEMLKDMLYDELMKTME
modifications: [35S]methionine label
B5: Fus3 (wild type), in vitro translated, 35S-labelled (enzyme, S. cerevisiae, UniProt P16892 1-353, looked up)
chain: MPKRIVYNISSDFQLKSLLGEGAYGVVCSATHKPTGEIVAIKKIEPFDKPLFALRTLREIKILKHFKHENIITIFNIQRPDSFENFNEVYIIQELMQTDLHRVISTQMLSDDHIQYFIYQTLRAVKVLHGSNVIHRDLKPSNLLINSNCDLKVCDFGLARIIDESAADNSEPTGQQSGMTEYVATRWYRAPEVMLTSAKYSRAMDVWSCGCILAELFLRRPIFPGRDYRHQLLLIFGIIGTPHSDNDLRCIESPRAREYIKSLPMYPAAPLEKMFPRVNPKGIDLLQRMLVFDPAKRITAKEALEHPYLQTYHDPNDEPEGEPIPPSFFEFDHYKEALTTKDLKKLIWNEIFS
modifications: [35S]methionine label
B6: GST-Dig2_(98-114) (domain or fragment, S. cerevisiae, UniProt Q03373 98-114, looked up)
chain: SLKRKRVPPALNFSDIQ
B7: GST-Ste5_(241-336) (domain or fragment, S. cerevisiae, UniProt P32917 241-336, looked up)
chain: PENDELKDILISDFLIHKIPDSELSITPQSRFPPYSPLLPPFGLSYTPVERQTIYSQAPSLNPNLILAAPPKERNQIPQKKSNYTFLHSPLGHRRI
B9: GST-Ste7_(1-98) (domain or fragment, S. cerevisiae, UniProt P06784 1-98, looked up)
chain: MFQRKTLQRRNLKGLNLNLHPDVGNNGQLQEKTETHQGQSRIEGHVMSNINAIQNNSNLFLRRGIKKKLTLDAFGDDQAISKPNTVVIQQPQNEPVLV

The target of test [1] is B4. As to the kind of experiment: pull-down.
For test [2], the target named is T1, Kss1-GBD (wild-type Kss1 fused to the Gal4 DNA-binding domain) (S. cerevisiae, UniProt P14681 1-368).
T1 sequence (looked up): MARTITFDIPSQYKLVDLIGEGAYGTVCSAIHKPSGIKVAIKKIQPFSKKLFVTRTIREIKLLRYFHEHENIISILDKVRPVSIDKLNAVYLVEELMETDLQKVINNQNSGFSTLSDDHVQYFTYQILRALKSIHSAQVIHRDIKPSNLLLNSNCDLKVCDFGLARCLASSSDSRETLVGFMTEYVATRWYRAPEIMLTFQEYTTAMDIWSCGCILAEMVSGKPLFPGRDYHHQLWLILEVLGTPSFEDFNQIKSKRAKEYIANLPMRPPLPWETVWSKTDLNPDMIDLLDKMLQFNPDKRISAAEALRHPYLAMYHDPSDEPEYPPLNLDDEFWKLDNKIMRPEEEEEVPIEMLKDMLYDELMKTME
As to the kind of experiment: two-hybrid.

Test [3] concerns the target B6. As to the kind of experiment: pull-down.
Test [4] deals with T2, GST-Dig1_(213-452) (S. cerevisiae, UniProt Q03063 213-452).
T2 sequence (looked up): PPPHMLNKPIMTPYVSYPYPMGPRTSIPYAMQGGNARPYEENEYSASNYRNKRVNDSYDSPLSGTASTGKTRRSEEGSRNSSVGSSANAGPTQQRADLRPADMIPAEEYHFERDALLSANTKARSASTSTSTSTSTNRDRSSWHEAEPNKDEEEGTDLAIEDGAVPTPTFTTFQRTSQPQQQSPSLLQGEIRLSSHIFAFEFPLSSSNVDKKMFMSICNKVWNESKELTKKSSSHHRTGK
The experiment in a line: pull-down.

Test [5] concerns the target B7. The experiment in a line: pull-down.
Test [6] has as its target B9. As to the kind of experiment: pull-down.
The target of test [7] is T3, GST-Dig1_(93-111) (S. cerevisiae, UniProt Q03063 93-111).
T3 chain (looked up): KKSLKRGRVPAPLNLSDSN
As to the kind of experiment: pull-down.

Test [8] addresses B5. The experiment in a line: pull-down.
For test [9], the target named is B5. As to the kind of experiment: pull-down. This is another data set of the same source.
Test [10] addresses B4. The experiment in a line: pull-down. The source holds these as a separate data set.

Where two headings read alike, the source gives them in different places. Where only a bound is given, the exact number is not on record here.

B1: GST-Ste12_(298-473) (domain or fragment, S. cerevisiae, UniProt P13574 298-473, looked up)
chain: AKGRDEEDFPLDYFPVSVEYPTEENAFDPFPPQAFTPAAPSMPISYDNVNERDSMPVNSLLNRYPYQLSVAPTFPVPPSSSRQHFMTNRDFYSSNNNKEKLVSPSDPTSYMKYDEPVMDFDESRPNENCTNAKSHNSGQQTKQHQLYSNNFQQSYPNGMVPGYYPKMPYNPMGGDP
The term Kd denotes the free concentration of one partner at which half of the binding sites on the other are occupied at equilibrium, for simple one-to-one binding. Higher therefore signals a looser complex. As for B1, the Kd in test [1] was ~2000 nM.

B2: full-length Dig2-GAD (natural protein, S. cerevisiae, UniProt Q03373 1-323, looked up)
chain: MNKEEQEDPQQEQISTVQENDPRNLQQLGMLLVSPGLDEDRLSEKMISKIKKSRDIEKNQKLLISRLSQKEEDHSGKPPTITTSPAEKTVPFKSLNHSLKRKRVPPALNFSDIQASSHLHGSKSAPPNITRFPQHKNSLRVRYMGRMAPTNQDYHPSVANSYMTATYPYPYTGLPPVPCYPYSSTPTQTHAYEGYYSPMYPGPLYNNGIIPADYHAKRKKLAGRSPHLEDLTSRKRTFVSKHHNGDPIISKTDEDIECSVTKNSLSEGASLNDDADDDNDKERIIIGEISLYDDVFKFEVRDDKNDYMKACETIWTEWHNLKK
Turning to B2, in test [2], the “fold above background (two-hybrid reporter)” value (from here on “fold above background”) was determined as 23 fold.

B3: full-length Dig1-GAD (natural protein, S. cerevisiae, UniProt Q03063 1-452, looked up)
chain: MAVSARLRTTAEDTSIAKSTQDPIGDTEISVANAKGSSDSNIKNSPGGNSVGQESELEHVPEEDDSGDKEADHEDSETATAKKRKAQPLKNPKKSLKRGRVPAPLNLSDSNTNTHGGNIKDGNLASSNSAHFPPVANQNVKSAPAQVTQHSKFQPRVQYLGKASSRQSIQVNNSSNSYGKPHMPSAGIMSAMNPYMPMNRYIMSPYYNPYGIPPPHMLNKPIMTPYVSYPYPMGPRTSIPYAMQGGNARPYEENEYSASNYRNKRVNDSYDSPLSGTASTGKTRRSEEGSRNSSVGSSANAGPTQQRADLRPADMIPAEEYHFERDALLSANTKARSASTSTSTSTSTNRDRSSWHEAEPNKDEEEGTDLAIEDGAVPTPTFTTFQRTSQPQQQSPSLLQGEIRLSSHIFAFEFPLSSSNVDKKMFMSICNKVWNESKELTKKSSSHHRTGK
In the case of B3, the “fold above background” value in [2] came to 3 fold.

In the case of B4, in [3], the “fold higher affinity than for the Dig1 D-site” value was ~3 fold. The “percent of input bound” value in [4] is 1.3 % of input; in [5], 3.7 % of input; in [6], 9 % of input.

For B5, the “fold higher affinity than Kss1 for the same D-site” value in test [3] and in test [7] was ~17 fold throughout. Also, the “fold higher affinity than for the Dig1 D-site” value in test [3] is ~3 fold. Also, the “percent of input bound” value in [4] is 0.6 % of input; in [5], 12.6 % of input; in test [6], 14 % of input.

Regarding B6, the Kd in test [8] is ~1000 nM.

With B7, the Kd in test [9] was ~1000 nM; in test [10], ~6.5 µM.

B8: Fus3-7m2 (D317N), in vitro translated, 35S-labelled (enzyme, S. cerevisiae, UniProt P16892 1-353, looked up)
chain: MPKRIVYNISSDFQLKSLLGEGAYGVVCSATHKPTGEIVAIKKIEPFDKPLFALRTLREIKILKHFKHENIITIFNIQRPDSFENFNEVYIIQELMQTDLHRVISTQMLSDDHIQYFIYQTLRAVKVLHGSNVIHRDLKPSNLLINSNCDLKVCDFGLARIIDESAADNSEPTGQQSGMTEYVATRWYRAPEVMLTSAKYSRAMDVWSCGCILAELFLRRPIFPGRDYRHQLLLIFGIIGTPHSDNDLRCIESPRAREYIKSLPMYPAAPLEKMFPRVNPKGIDLLQRMLVFDPAKRITAKEALEHPYLQTYHDPNNEPEGEPIPPSFFEFDHYKEALTTKDLKKLIWNEIFS
modifications: [35S]methionine label
On to B8, for which the “percent of wild-type binding” value in test [6] is < 1 % of wild-type.

On to B9, for which the Kd in test [9] is ~100 nM; in [10], ~0.1 µM.

B10: Ste12-GAD (Ste12 fused to the Gal4 transcriptional activation domain) (natural protein, S. cerevisiae, UniProt P13574 1-688, looked up)
chain: MKVQITNSRTEEILKVQANNENDEVSKATPGEVEESLRLIGDLKFFLATAPVNWQENQIIRRYYLNSGQGFVSCVFWNNLYYITGTDIVKCCLYRMQKFGREVVQKKKFEEGIFSDLRNLKCGIDATLEQPKSEFLSFLFRNMCLKTQKKQKVFFWFSVAHDKLFADALERDLKRESLNQPSTTKPVNEPALSFSYDSSSDKPLYDQLLQHLDSRRPSSTTKSDNSPPKLESENFKDNELVTVTNQPLLGVGLMDDDAPESPSQINDFIPQKLIIEPNTLELNGLTEETPHDLPKNTAKGRDEEDFPLDYFPVSVEYPTEENAFDPFPPQAFTPAAPSMPISYDNVNERDSMPVNSLLNRYPYQLSVAPTFPVPPSSSRQHFMTNRDFYSSNNNKEKLVSPSDPTSYMKYDEPVMDFDESRPNENCTNAKSHNSGQQTKQHQLYSNNFQQSYPNGMVPGYYPKMPYNPMGGDPLLDQAFYGADDFFFPPEGCDNNMLYPQTATSWNVLPPQAMQPAPTYVGRPYTPNYRSTPGSAMFPYMQSSNSMQWNTAVSPYSSRAPSTTAKNYPPSTFYSQNINQYPRRRTVGMKSSQGNVPTGNKQSVGKSAKISKPLHIKTSAYQKQYKINLETKARPSAGDEDSAHPDKNKEISMPTPDSNTLVVQSEEGGAHSLEVDTNRRSDKNLPDAT
On to B10, for which the “fold above background” value in test [2] is 4 fold.
